According to patent US20260184809A1 (Genmab, published 2026):

T1: recombinant cynomolgus monkey EpCAM (R&D systems, cat no. 10451-EP) (cynomolgus monkey, UniProt Q1WER1 24-265 (rhesus entry))
T1 construct: also called cynomolgus monkey EpCAM extracellular domain
T1 sequence: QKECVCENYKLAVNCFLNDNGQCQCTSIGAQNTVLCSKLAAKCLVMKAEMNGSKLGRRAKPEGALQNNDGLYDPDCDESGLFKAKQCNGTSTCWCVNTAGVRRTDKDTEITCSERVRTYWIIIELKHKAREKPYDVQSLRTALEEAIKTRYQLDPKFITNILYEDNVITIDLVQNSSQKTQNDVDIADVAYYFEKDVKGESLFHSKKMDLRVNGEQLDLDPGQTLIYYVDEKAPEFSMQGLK


How the values were obtained:
[1] = target: T1, recombinant cynomolgus monkey EpCAM …; experiment: BLI (Octet HTX); recombinant cynomolgus monkey EpCAM on anti-Penta-HIS sensors, antibody 1.56-100 nM in solution
[2] = target: T2, His-tagged FcRn (SinoBiological, cat. no. CT009-H08H-B) (UniProt P55899 24-297; P61769 21-119); experiment: SPR kinetics at pH 6.0; His-tagged FcRn captured, antibody 0-100 nM as analyte
T2 construct: also called neonatal Fc receptor

[3] = target: T2, His-tagged FcRn (SinoBiological, cat. …); experiment: SPR kinetics at pH 6.0; His-tagged FcRn captured, antibody 0-100 nM as analyte; mean
[4] = target: FcγRIa (CD64 Protein, Human, Recombinant (His Tag), Biotinylated; SinoBiological 10256-H08S-B) (human, UniProt P12314 16-288); experiment: SPR (Biacore 8K), His-tagged FcγR captured on anti-His chip, antibody as analyte, endpoint response against concentration
FcγRIa (CD64 Protein, Human, Recombinant (His Tag), Biotinylated; SinoBiological 10256-H08S-B), sequence (P12314 16-288 limits assumed, stated change not applied): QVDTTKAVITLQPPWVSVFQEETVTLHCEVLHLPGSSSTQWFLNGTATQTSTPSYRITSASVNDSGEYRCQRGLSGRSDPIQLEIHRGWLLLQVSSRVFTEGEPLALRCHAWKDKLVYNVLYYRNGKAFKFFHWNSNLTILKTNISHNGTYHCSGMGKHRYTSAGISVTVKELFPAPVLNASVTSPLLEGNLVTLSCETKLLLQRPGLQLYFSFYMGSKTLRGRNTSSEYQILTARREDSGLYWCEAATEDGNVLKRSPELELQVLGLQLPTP

T2 sequence (P55899 24-297 limits assumed, form in doubt, chain 1 of 2): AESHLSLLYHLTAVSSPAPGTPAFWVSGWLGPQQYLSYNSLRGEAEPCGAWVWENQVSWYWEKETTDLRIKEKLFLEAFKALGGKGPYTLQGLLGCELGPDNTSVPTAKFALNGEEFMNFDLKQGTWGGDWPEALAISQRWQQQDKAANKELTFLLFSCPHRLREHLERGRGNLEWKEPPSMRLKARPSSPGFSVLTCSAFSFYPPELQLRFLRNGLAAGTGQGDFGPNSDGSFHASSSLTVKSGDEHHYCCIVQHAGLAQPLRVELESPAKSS
T2 sequence (P61769 21-119 limits assumed, form in doubt, chain 2 of 2): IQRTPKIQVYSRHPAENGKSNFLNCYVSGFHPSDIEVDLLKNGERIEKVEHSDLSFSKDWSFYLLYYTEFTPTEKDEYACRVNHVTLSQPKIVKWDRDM

Binder	Response [1]	koff [2]	kon [2]	Kd [3]	EC50 (read off the curve) [4]
BisG2amm-EpCAM-323-A3-AALT/m4-1BB-3H3-AAKR (bispecific antibody, mouse IgG2a, kappa, also called BsIgG2amm-EpCAM-323-A3-AALT/m4-1BB-3H3-AAKR; BisIgG2amm-EpCAM-323-A3-AALT/m4-1BB-3H3-AAKR) heavy 1: QIQLVQSGPELKKPGETVKISCKASGYTFTNYGMNWVRQASGEGLKWMGWINTYTGEPTYGEDFKGRFAFSLETSASTAYLQINNLKNEDTATYFCARFGNYVDYWGQGTTLTVSSAKTTAPSVYPLAPVCGDTTGSSVTLGCLVKGYFPEPVTLTWNSGSLSSGVHTFPAVLQSDLYTLSSSVTVTSSTWPSQSITCNVAHPASSTKVDKKIEPRGPTIKPCPPCKCPAPNAAGGPSVFIFPPKIKDVLMISLSPMVTCVVVDVSEDDPDVQISWFVNNVEVLTAQTQTHREDYNSTLRVVSALPIQHQDWMSGKEFKCKVNNKALPAPIERTISKPKGSVRAPQVYVLPPPEEEMTKKQVTLTCMVTDFMPEDIYVEWTNNGKTELNYKNTEPVLDSDGSYLMYSKLTVEKKNWVERNSYSCSVVHEGLHNHHTTKSFSRTPG light 1: DIVMTQAAFSNPVTLGTSASISCRSSKNLLHSNGITYLYWYLQKPGQSPHLLIYQMSNLASGVPDRFSSSGSGTDFTLRISRVEAEDVGVYYCAQNLEIPRTFGGGTKLEIKRADAAPTVSIFPPSSEQLTSGGASVVCFLNNFYPKDINVKWKIDGSERQNGVLNSWTDQDSKDSTYSMSSTLTLTKDEYERHNSYTCEATHKTSTSPIVKSFNRNEC heavy 2: EMQLVESGGGLVQPGRSMKLSCAGSGFTLSDYGVAWVRQAPKKGLEWVAYISYAGGTTYYRESVKGRFTISRDNAKSTLYLQMDSLRSEDTATYYCTIDGYGGYSGSHWYFDFWGPGTMVTVSSAKTTAPSVYPLAPVCGDTTGSSVTLGCLVKGYFPEPVTLTWNSGSLSSGVHTFPAVLQSDLYTLSSSVTVTSSTWPSQSITCNVAHPASSTKVDKKIEPRGPTIKPCPPCKCPAPNAAGGPSVFIFPPKIKDVLMISLSPMVTCVVVDVSEDDPDVQISWFVNNVEVLTAQTQTHREDYNSTLRVVSALPIQHQDWMSGKEFKCKVNNKALPAPIERTISKPKGSVRAPQVYVLPPPEEEMTKKQVTLTCMVKDFMPEDIYVEWTNNGKTELNYKNTEPVLDSDGSYFMYSRLRVEKKNWVERNSYSCSVVHEGLHNHHTTKSFSRTPG light 2: DIQMTQSPSLLSASVGDRVTLNCRTSQNVYKNLAWYQQKLGEAPKLLIYNANSLQAGIPSRFSGSGSGTDFTLTISSLQPEDVATYFCQQYYSGNTFGAGTNLELKRADAAPTVSIFPPSSEQLTSGGASVVCFLNNFYPKDINVKWKIDGSERQNGVLNSWTDQDSKDSTYSMSSTLTLTKDEYERHNSYTCEATHKTSTSPIVKSFNRNEC	0.02 nm	–	–	–	–
IgG1-b12 (wild-type Fc) (antibody) heavy: not shown light: EIVLTQSPGTLSLSPGERATFSCRSSHSIRSRRVAWYQHKPGQAPRLVIHGVSNRASGISDRFSGSGSGTDFTLTITRVEPEDFALYYCQVYGASSYTFGQGTKLERKRTVAAPSVFIFPPSDEQLKSGTASVVCLLNNFYPREAKVQWKVDNALQSGNSQESVTEQDSKDSTYSLSSTLTLSKADYEKHKVYACEVTHQGLSSPVTKSFNRGEC	–	0.0322 s⁻¹	1.1e+06 M⁻¹ s⁻¹	29 nM	~50 nM
